We go through seven molecules from US20230012273A1 (Boehringer Ingelheim, published 2023).

The target in experiment [1] is ED-tagged human SIRPα V1 receptor on Jurkat signaling reporter cells (human, UniProt P78324 31-504). In words: cell-based or functional assay.
For experiment [2], the target named is ED-tagged human SIRPα V2 receptor on Jurkat signaling reporter cells (human, UniProt P78324 31-504). In words: cell-based or functional assay.
Experiment [3] concerns the target T1, full-length human SIRPαV1 (NP_542970.1) on cells (human, UniProt P78324 31-504).
T1 construct: one molecule for CHO-K1 and Expi-CHO transfectants (NP_542970.1) and for endogenous V1 on U-937 cells and on CD14+ monocytes of V1/V1 donors; also called CHO-hSIRPαV1; αV1 WT
The experiment in a line: flow cytometry, Expi-CHO cells. The procedure:
(§1) Expi-CHO parental cells are transduced with lentiviruses containing either full-length wild-type human SIRPαV1 allele (NP_542970.1) or full-length human SIRPαV1 with amino acid point mutations (Table 56) and sorted to achieve matching expression levels. These cells are blocked with donkey IgG and incubated on ice with increasing concentrations of antibodies for 60 minutes, washed and stained with AF647-conjugated donkey F(ab′)₂ anti-human IgG antibodies. Stained cells are washed, fixed, and analyzed by flow cytometry. Median fluorescent intensity is determined and used as a measure of antibody binding.
A general note: A flow cytometer gives signals particle by particle.

For experiment [4], the target named is T2, full-length human SIRPαV1 N→E on Expi-CHO cells (human, UniProt P78324 31-504).
T2 construct: the entry already carries the change (TKRN to TKRE)
The experiment in a line: flow cytometry, Expi-CHO cells. The procedure:
as §1

Experiment [5] concerns the target T3, full-length human SIRPαV1 D→E on Expi-CHO cells (human, UniProt P78324 31-504).
T3 construct: the entry already carries the change (PDDV to PEDV)
In words: flow cytometry, Expi-CHO cells. The procedure:
as §1

For experiment [6], the target named is T4, full-length human SIRPαV2 (CAA71403.1) on cells (human, UniProt P78324 31-504).
T4 construct: one molecule for CHO-K1 and Expi-CHO transfectants (CAA71403.1) and for endogenous V2 on THP-1 cells and on CD14+ monocytes of V2/V2 donors; also called CHO-hSIRPαV2; αV2 WT
In words: flow cytometry, Expi-CHO cells. As to the method:
as §1, with “SIRPαV2” for “SIRPαV1”, “(CAA71403.1)” for “(NP_542970.1)”, “58)” for “56)”

Experiment [7] has as its target T5, full-length human SIRPαV2 E→N on Expi-CHO cells (human, UniProt P78324 31-504).
T5 construct: the entry already carries the change (TKRE to TKRN)
The experiment in a line: flow cytometry, Expi-CHO cells. The procedure:
as §1, with “SIRPαV2” for “SIRPαV1”, “(CAA71403.1)” for “(NP_542970.1)”, “58)” for “56)”

The target in experiment [8] is T6, full-length human SIRPαV2 D→E on Expi-CHO cells (human, UniProt P78324 31-504).
T6 construct: the entry already carries the change (SPDT to SPET)
The experiment in a line: flow cytometry, Expi-CHO cells. The procedure: as §1, with “SIRPαV2” for “SIRPαV1”, “(CAA71403.1)” for “(NP_542970.1)”, “58)” for “56)”

Experiment [9] addresses T7, full-length human SIRPβL H→D on Expi-CHO cells (human, UniProt Q5TFQ8 30-398).
T7 construct: the entry already carries the change (PDHV to PDDV); also called βL WT H→D
The experiment in a line: flow cytometry, Expi-CHO cells. As to the method: Expi-CHO parental cells are transduced with lentiviruses containing either full-length wild-type human SIRPβL (Q5TFQ8) or full-length human SIRPβL with a single amino acid point mutation (Table 62) and sorted to achieve matching expression levels. These cells are blocked with donkey IgG and incubated on ice with increasing concentrations of antibodies for 60 minutes, washed and stained with AF647-conjugated donkey F(ab′)₂ anti-human IgG antibodies. Stained cells are washed, fixed, and analyzed by flow cytometry. Median fluorescent intensity is determined and used as a measure of antibody binding.
A single amino acid substitution (H→D) introduced within the loop region maintained, strengthened, or facilitated antibody binding to these cells (FIG. 34B, Table 63).

Experiment [10] addresses T1, full-length human SIRPαV1 (NP_542970.1) …. In words: flow cytometry, CD14+ monocytes V1V1. As to the method:
(§2) Antibody binding to primary human cells expressing SIRPα is evaluated by flow cytometry. Human peripheral blood mononuclear cells (PBMCs) from donors genotyped as homozygous for the SIRPα V1 allele, V2 allele, or heterozygous for both alleles are blocked with donkey IgG and incubated on ice with increasing concentrations of antibody for 60 minutes, washed and stained with AF647-conjugated donkey F(ab′)₂ anti-human IgG secondary reagent. […] Cells are washed, fixed, and analyzed by flow cytometry. Median fluorescent intensity of the CD14+ population was determined and used as a measure of antibody binding.

Experiment [11] has as its target T4, full-length human SIRPαV2 (CAA71403.1) …. In words: flow cytometry, CD14+ monocytes V2V2. The procedure: as §2
Experiment [12] addresses T1, full-length human SIRPαV1 (NP_542970.1) …. In words: flow cytometry, competition with CD47 tetramer, monocytes V1V1. As to the method: Cells are washed, fixed, and analyzed by flow cytometry. Median fluorescent intensity of CD14+gated population is determined and used as a measure of CD47 binding.
Experiment [13] has as its target T8, full-length human SIRPβ1 D→H on Expi-CHO cells (human, UniProt O00241 30-398).
T8 construct: the entry already carries the change (PDDV to PDHV)
In words: flow cytometry, Expi-CHO cells expressing full-length human SIRPβ1 D→H. As to the method: These cells are blocked with donkey IgG and incubated on ice with increasing concentrations of antibodies for 60 minutes, washed and stained with AF647-conjugated donkey F(ab′)₂ anti-human IgG antibodies. Stained cells are washed, fixed, and analyzed by flow cytometry. Median fluorescent intensity is determined and used as a measure of antibody binding.

Changes are numbered by the printed parent chain.

B1: Antibody D (antibody, human IgG1, kappa, L234A L235A, V domains shown)
VH: EVQLVESGGGLVQPGGSLRLSCAASGFTFSSFDMHWVRQPTGKGLEWVSTIGIAGDTYFPGSVKGRFTISRENAKNSLYLQMNSLRAGDTAVYYCARGGNWDDALDIWGQGTMVTVSS
VL: DIQMTQSPSSLSASVGDRVTITCRASQDINNYLAWFQQKPGKAPKSLIYTASSLQSGVPSKFSGSGSGTDFTLTISSLQPEDFATYYCQQYNTYPYTFGQGTKLEIKR
Regarding B1, the “Blockade of Cellular CD47-Mediated SIRPα Signaling; IC50” value in experiment [1] and in experiment [2] was 0.04 nM throughout. Further, the 50% effective concentration (EC50) in experiment [3] is 0.3 nM; in experiment [4], 0.3 nM; in experiment [5], 0.2 nM; in experiment [6], 0.2 nM; in [7] it was 0.2 nM; in [8], 0.6 nM. Besides, the 50% effective concentration (EC50) in [9] was 0.2 nM; in experiment [10], 0.3 nM; in [11], 0.2 nM. The molecule further displayed an IC50 in experiment [12] of 0.03 nM. Moreover, the binding result in [13] was “no binding (tested: about 67 nM)”.

B2: Antibody A (antibody, human IgG1, kappa, L234A L235A)
heavy: not shown
light: DIQMTQSPSSLSASVGDRVTITCRASQDINNYLAWFQQKPGKAPKSLIYTASSLHSGVPSKFSGSGSGTDFTLTISSLQPEDFATYYCQQYVSYPYTFGQGTKLEIKRTVAAPSVFIFPPSDEQLKSGTASVVCLLNNFYPREAKVQWKVDNALQSGNSQESVTEQDSKDSTYSLSSTLTLSKADYEKHKVYACEVTHQGLSSPVTKSFNRGEC
Regarding B2, the “Blockade of Cellular CD47-Mediated SIRPα Signaling; IC50” value in experiment [1] and in experiment [2] was 0.04 nM throughout. This molecule also displayed an EC50 in experiment [9] of 0.5 nM. The binding result in [13] was “no binding (tested: about 67 nM)”.

B3: Antibody A10 (antibody, human IgG1, kappa, L234A L235A)
heavy: not shown
light: B2 light
B3: the “Blockade of Cellular CD47-Mediated SIRPα Signaling; IC50” value in experiment [1] and in experiment [2] was 0.04 nM throughout. The EC50 in experiment [9] turned out to be 0.6 nM. The binding result in experiment [13] is given as “no binding (tested: about 67 nM)”.

B4: Antibody C (antibody, human IgG1, kappa, L234A L235A, V domains shown)
VH: B1 VH with F32Y, P40A, T50V, F59Y, A87V, N100S, L105F
VL: B1 VL with V15I, R18K, N92V, T93S
For the molecule B4, the “Blockade of Cellular CD47-Mediated SIRPα Signaling; IC50” value in [1] came to 0.04 nM; in [2] it was 0.03 nM. In addition, the EC50 in experiment [3] was 0.3 nM; in experiment [4] it was 0.3 nM; in experiment [5], 0.2 nM; in experiment [6], 0.2 nM; in experiment [7], 0.2 nM; in experiment [8], 0.2 nM. The EC50 in [9] amounted to 0.3 nM; in [10], 0.6 nM; in [11], 0.3 nM. The molecule further showed an IC50 in experiment [12] of 0.04 nM. Besides, the binding result in experiment [13] is on record as “no binding (tested: about 67 nM)”.

B5: Antibody B (antibody, human IgG1, kappa, L234A L235A, V domains shown)
VH: QVQLVQSGAEVKKPGASVKVSCKASGYTFTGNYMHWVRQAPGQGLEWMGWINPNSGGTNYAQKFQGRVTMTRDTSISTAYMELSRLRSDDTAVYYCVSGSGWYENYYYYGMDVWGQGTTVTVSS
VL: DIQMTQSPSSVSASVGDRVTITCRASQGISSWLAWYQQKPGKAPKLLIYAESSLQSGVPSRFSGSGSGTDFTLTISSLQPEDFATYYCQQANSFPLTFGGGTKVEIKR
Regarding B5, the “Blockade of Cellular CD47-Mediated SIRPα Signaling; IC50” value in [1] is 0.76 nM. For the same molecule, the EC50 in experiment [3] was determined as 3.8 nM; in experiment [4], 4.5 nM; in experiment [5], 3.7 nM; in [6] it was 3.6 nM; in experiment [7] it was 4.1 nM; in experiment [8], 3.7 nM. The values for the EC50 in experiment [10] and in [11] were 26.6 nM and 21.8 nM, respectively. The IC50 in [12] was found to be 2.55 nM.

B6: Antibody E (antibody, human IgG1, kappa, L234A L235A)
heavy: not shown
light: DIVMTQSPLSLPVTPGEPASISCKSSQSLLYSNGYNYLDWYLQRPGQSPQLLIYLGSNRASGVPDRFSGSGSGTDFTLKISRVEAEDVGVFYCMQALQTPLTFGGGTKVEIKRTVAAPSVFIFPPSDEQLKSGTASVVCLLNNFYPREAKVQWKVDNALQSGNSQESVTEQDSKDSTYSLSSTLTLSKADYEKHKVYACEVTHQGLSSPVTKSFNRGEC
Turning to B6, in [1], the “Blockade of Cellular CD47-Mediated SIRPα Signaling; IC50” value was 0.04 nM. For the same molecule, the “Blockade of Cellular CD47-Mediated SIRPα Signaling; IC50 (* Inhibition plateaus at <100%)” value in experiment [2] stood at 0.04 nM. Further, the 50% effective concentration (EC50) was 0.5 nM in experiment [3]; 0.5 nM in [4]; 0.4 nM in [5]; 0.3 nM in [6]; 0.3 nM in experiment [7]; 0.3 nM in experiment [8]. For the same molecule, the EC50 was determined as 0.5 nM in experiment [9], 0.4 nM in [10] and 0.7 nM in experiment [11]. Besides, the half-inhibitory concentration (IC50) in [12] amounted to 0.09 nM. Moreover, the binding result in experiment [13] is “no binding (tested: about 67 nM)”.

B7: Anti-SIRPα antibody KWAR23 (antibody, V domains shown)
VH: EVQLQQSGAELVKPGASVKLSCTASGFNIKDYYIHWVQQRTEQGLEWIGRIDPEDGETKYAPKFQDKATITADTSSNTAYLHLSSLTSEDTAVYYCARWGAYWGQGTLVTVSS
VL: QIVLTQSPAIMSASPGEKVTLTCSASSSVSSSYLYWYQQKPGSSPKLWIYSTSNLASGVPARFSGSGSGTSYSLTISSMEAEDAASYFCHQWSSYPRTFGAGTKLELK
On to B7, for which the EC50 in experiment [3] amounted to 0.3 nM; in [4], 0.5 nM; in [5], 0.2 nM; in [6], 0.2 nM; in experiment [7] it was 0.2 nM; in experiment [8], 0.2 nM. The EC50 in experiment [9] was found to be 0.5 nM; in experiment [10], 0.2 nM; in [11], 0.1 nM. In experiment [12], this molecule returned a concentration for half-maximal inhibition (IC50) of 0.07 nM.

In general, EC50 refers to the midpoint of the concentration-response curve. The low end stands for higher potency in that assay, the high end for lower potency in that assay. For orientation: IC50 means the concentration needed to halve the response being measured.
